Reference: the supplement of paper PMC12455559
± gives the standard deviation of the averaged measurements.

Tests used:
[1] = melting temperature (DSF); higher = more thermostable
Method in brief: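 Candidate enzymes were expressed in E. coli C41(DE3), purified on nickel beads and released by SUMO protease cleavage. For differential scanning fluorimetry, 45 μL enzyme (0 to 0.3 mg/mL) was mixed with 5 μL 5X Sypro Orange in sealed PCR plates on a Bio-Rad CFX96 instrument. Fluorescence was read from 25 °C in steps of 0.3 °C per cycle (ramp 0.3 °C/s) for 250 cycles. The read-out is melting temperature.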

[2] = purified protein yield per well (BCA); higher = higher soluble expression
Method in brief: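 On an OT-2 robot, lysed cells were processed by binding protein to Ni-charged magnetic beads and releasing it with SUMO protease. Expression took place in E. coli C41(DE3), in 2 mL autoinduction cultures with 100 µg/mL kanamycin, for 2 h at 37 °C followed by 40 h at 18 °C. The Pierce Rapid Gold BCA kit was used to quantify purified protein yield in each well, with values under 25 ug (0.1 mg/mL) below the detection threshold.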

[3] = PET hydrolysis, aromatic products released after 48 h (umol product/mg enzyme); higher = more PET depolymerization activity
Method in brief: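 PET hydrolysis activity was taken as the aromatic product in the supernatant and expressed per mg enzyme. This product was measured by absorbance at 260 and 280 nm against buffer blanks. Each reaction held 5 μg (50 μL) of tagless, SUMO-cleaved candidate enzyme purified on nickel beads, plus 3.5 mg amorphous PET film or crystalline PET powder in 450 μL buffer: 50 mM NaCitrate (pH 4.5, 5.5), 50 mM NaPhosphate (pH 6.5, 7.5) or glycine (pH 8.5). Plates were sealed and left 48 h at 40 or 60 °C without shaking.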

[4] = substrate: aFilm, 40 °C, pH 4.5
[5] = substrate: aFilm, 40 °C, pH 5.5
[6] = substrate: aFilm, 40 °C, pH 6.5
[7] = substrate: aFilm, 40 °C, pH 7.5
[8] = substrate: aFilm, 60 °C, pH 4.5
[9] = substrate: aFilm, 60 °C, pH 5.5
[10] = substrate: aFilm, 60 °C, pH 6.5
[11] = substrate: aFilm, 60 °C, pH 7.5
[12] = substrate: cryPow, 40 °C, pH 4.5
[13] = substrate: cryPow, 40 °C, pH 5.5
[14] = substrate: cryPow, 40 °C, pH 6.5
[15] = substrate: cryPow, 40 °C, pH 7.5
[16] = substrate: cryPow, 60 °C, pH 4.5
[17] = substrate: cryPow, 60 °C, pH 5.5
[18] = substrate: cryPow, 60 °C, pH 6.5
[19] = substrate: cryPow, 60 °C, pH 7.5
[20] = substrate: cryPow, 40 °C, pH 8.5

ASPYQRGPNPTAASIAATTGPFAIASITVPRGNGFGGGVIYYPTSTSQGTFGGIAISPGLNGTWSGISWLGPRLASQGFVVFGIETNNLNDSPTSRGTQLLAALDYLTQRSSVRSRLDANRLAVMGHSMGGGGALDAALRRPTLKATIGNAPHLPSGSLANDRVPTLIYAMQNDTLVTPARLTSLYNTIPAATERAYIEVTGAGHNYIGQPSTTLARTMIPWLKIFIDSDTRYAPFLCPLNDRSGIRQYRNSCPLI [ESM128]
melting temperature [1]: 66.4 C | purified protein yield per well [2]: 407 µg | PET hydrolysis [3, 4]: < 3 | PET hydrolysis [3, 5]: < 3 | PET hydrolysis [3, 6]: < 3 | PET hydrolysis [3, 7]: 6 | PET hydrolysis [3, 8]: < 3 | PET hydrolysis [3, 9]: < 3 | PET hydrolysis [3, 10]: < 3 | PET hydrolysis [3, 11]: < 3 | PET hydrolysis [3, 12]: < 3 | PET hydrolysis [3, 13]: 43 | PET hydrolysis [3, 14]: 75 ± 1.4 | PET hydrolysis [3, 15]: 110 ± 4.2 | PET hydrolysis [3, 16]: < 3 | PET hydrolysis [3, 17]: 4.5 ± 0.71 | PET hydrolysis [3, 18]: 18.5 ± 3.5 | PET hydrolysis [3, 19]: 41.5 ± 6.4

ASYQRGPDPTVQSVAANRGTFATAELTVPRGFGFNGGKIYYPTDTSQGTWGAIAAVPGYTASWAAEGAWMGPWLASFGFVVIGIDTNSPTDYDTARGTQLLAALDYLTGQSAVRDRVDPNRLAVLGHSMGGGGAISAAMRRPSLKAAVPLAPASFSQNLSNVRVPTLIMGARDDGTITPSSIDGLWSSKPATTQGARVELASGGHGFPTWGNSQVTRREIPWLKIFLDNDNRYAQFLCPSLADSTGVSRYISQCPYGSTGQPSSPPVSSPPAAGGPVRAVGAGKCLDVPNASQTNDTQLAIWDCNGGSNQQWTYTSGKQLRVYGGKCLDASGHGMSNGTRVIIWDCGGGANQQWNVNANGTITGVESGLCLDVTGAATANGALVDLWACNNGGNQQWRLG [ESM097]
melting temperature [1]: 58.3 C | purified protein yield per well [2]: 81.7 µg | PET hydrolysis [3, 12]: < 3 | PET hydrolysis [3, 13]: < 3 | PET hydrolysis [3, 14]: < 3 | PET hydrolysis [3, 15]: 4

ASYQRGPDPTVQSVAANRGTFPTAEITVPRGYGFNGGKIYYPTDTSQGTWGAIAAVPGYTASWAAEGAWMGPWLASFGFVVIGIDTNSPTDFDTARGTQLLAALDYLTGQSAVRDRVDPNRLAVLGHSMGGGGAISAAMRRPTLKAAIPLAPASFSQNLSTVRVPTLIMGARDDGTVTPSSINSLWATKPATTKGAYVELTGGGHGFPTWGNSQVTRREIPWLKIFLDNDNRYTQFLCPSLADNTGVSRYLSECPYGSTGQPTSPPSTPPPTSGGPVRAVGAGKCLDVPNASQTNDTQLAIWDCNGGTNQRWTRTAGKQLTVYGNKCLDAAGQGTTNGTRVIIWDCTGTANQQWNVNANGTITGVQSGLCLDVSGGSTANGALTQLWACNNGSNQQWRLG [ESM070]
melting temperature [1]: 64.6 C | purified protein yield per well [2]: 254 µg | PET hydrolysis [3, 12]: < 3 | PET hydrolysis [3, 13]: 4 | PET hydrolysis [3, 14]: 10 | PET hydrolysis [3, 15]: 17 | PET hydrolysis [3, 16]: < 3 | PET hydrolysis [3, 17]: < 3 | PET hydrolysis [3, 18]: < 3 | PET hydrolysis [3, 19]: < 3

ATGPSSPCSNCTRGPDPTVASLKSATGPYTTAKFSVSGYLKGFGDSTVYYPTNASGKMGAIAVIPGYVSYEDSIKWWGPRLASHGFVVMTMNTSTIYDQPDSRATQLSKALDYMIAQSGSSSSPIYNKVDSTRLGVIGWSMGGGGTLKLSTQRSINAIIPQAPYYAGSNSFNTIKTPALILACGADAVAPVGVHASPFYNRIPGTTPKAYLEIYGGSHFCANSGYPNEDLLGMYGIAWMKRFIDFDSRYSKFLCGPNHTADLNISEYRQNCNY [DP078]
melting temperature [1]: 59.5 C | purified protein yield per well [2]: 29 µg | PET hydrolysis [3, 13]: 9 | PET hydrolysis [3, 14]: 47 | PET hydrolysis [3, 15]: 60 | PET hydrolysis [3, 20]: 66

ATGPSSPCTNCTRGPNPTVAALKSNSGPFSTAKFSVSGYLKGFGDSTVYYPTNTTGKMGAIAVIPGYLSYESSIEWWGPRLASHGFVVITMNTNTIYDQPDSRATQLSKALDYVIAQSNSSSSPIAGKVDSTRLGAIGWSMGGGGSLKLSTQRSLNAIIPQAPYYAGSNSFNTIKTPTLILACGVDAVAPVAAHASPFYNKIPNTTPKAFLEIYGGSHFCANSGYPNQDLLGMYGISWMKRFIDFDKRYSQFLCGPNHQADLAISEYRQNCNY [ESM048]
melting temperature [1]: 49.6 C | purified protein yield per well [2]: 48 µg | PET hydrolysis [3, 12]: < 3 | PET hydrolysis [3, 13]: < 3 | PET hydrolysis [3, 14]: < 3 | PET hydrolysis [3, 15]: < 3

ATNPYERGPAPTGTSVAADRGPFATAQLTVAKGNGFGGGVVYYPTDTSQGTFGAIAIAPGYGTEWRWYAWLGPRLASFGFVVLGIETNSLDDYADARGAQLLSALDWLVDSSPVRDRVDRTRLAVGGHSMGGGGALTAAIQRPSLMTAIGMAPYVPDGILRTIKIPTVLFGGQTDTTVTPSYLASAYATIPATVQRAYPEIANEGHGFAAGGGGGNSGAFARTMMIWMKVFIDKDTRYTGFLCPTLSNMSGISKYQASCPLGPTSGPSQSPSSSPSSTPSSSPSSTPSVSPSSTPSASPPGGPCRATYRTVNSWSGGYQGEVTVTAGGSAVNGWTVKWALSGGQSVTQVWNGTLSASGSNVSVSNASYNGSLGAGASTTFGFLANGTPSTPSPTCTSP [ESM021]
melting temperature [1]: 68.8 C | purified protein yield per well [2]: 275 µg | PET hydrolysis [3, 4]: < 3 | PET hydrolysis [3, 5]: < 3 | PET hydrolysis [3, 6]: < 3 | PET hydrolysis [3, 7]: < 3 | PET hydrolysis [3, 8]: < 3 | PET hydrolysis [3, 9]: < 3 | PET hydrolysis [3, 10]: < 3 | PET hydrolysis [3, 11]: < 3 | PET hydrolysis [3, 12]: < 3 | PET hydrolysis [3, 13]: 4.5 ± 0.71 | PET hydrolysis [3, 14]: 9 | PET hydrolysis [3, 15]: 9 ± 1.4 | PET hydrolysis [3, 16]: < 3 | PET hydrolysis [3, 17]: < 3 | PET hydrolysis [3, 18]: < 3 | PET hydrolysis [3, 19]: < 3

ATNPYQRGPAPTAESISAERGSFAVADSAVSADSVSGFGGGTVYYPTDTSAGKFGAVAIAPGFTANEWSLAWLGPRLASHGFVVFIIDTITTGDQPAQRGDELRAALSYLTTSSPVRDRVDPARLGVMGHSMGGGGALQAAEDDPSIRAVIPMTPYDLDSPSPKVTAPTLIIGAQDDTIAPVAYHARPFYESLTSARAKEYIELRNQSHFAPNYPNATIASASIAWLKRYIDDDQRYQPFACPAQVGSWLISDFRSAC [DP034]
melting temperature [1]: 47.5 C | purified protein yield per well [2]: 180 µg | PET hydrolysis [3, 5]: < 3 | PET hydrolysis [3, 6]: < 3 | PET hydrolysis [3, 7]: < 3 | PET hydrolysis ([3]; substrate: aFilm, 40 °C, pH 8.5): < 3 | PET hydrolysis [3, 9]: < 3 | PET hydrolysis [3, 10]: < 3 | PET hydrolysis [3, 11]: < 3 | PET hydrolysis ([3]; substrate: aFilm, 60 °C, pH 8.5): < 3 | PET hydrolysis [3, 13]: < 3 | PET hydrolysis [3, 14]: < 3 | PET hydrolysis [3, 15]: < 3 | PET hydrolysis [3, 20]: < 3 | PET hydrolysis [3, 17]: < 3 | PET hydrolysis [3, 18]: < 3 | PET hydrolysis [3, 19]: < 3 | PET hydrolysis ([3]; substrate: cryPow, 60 °C, pH 8.5): < 3
